Where a chain is given by its changes, count along the chain named.
B1: H1610L0581: affinity matured Dual-Fab variant, VH SEQ ID NO 94, VL SEQ ID NO 143 (antibody, V domains shown)
VH: QVQLVESGGGLVQPGRSLRLSCAASGFVFSNVWMHWVRQAPGKGLEWVAQIKDKWNAYAAYYAPSVKGRFTISRDDSKNSIYLQMNSLKTEDTAVYYCHYIHYASASTLLPAEGIDAWGQGTTVTVSS
VL: DIVMTQSPLSLPVTPGEPASISCQPSQEVVHMNRNTYLHWYQQKPGQAPRLLIYKVSNRFPGVPDRFSGSGSGTDFTLKISRVEAEDVGVYYCAQGTSHPFTFGQGTKLEIK
B2: H2594L0581: affinity matured Dual-Fab variant, VH SEQ ID NO 102, VL SEQ ID NO 143 (antibody, V domains shown)
VH: B1 VH with V28K, M34F, K54Y, W55Y, A60G, A63H, I101V, S105A, T108Q, I115V
VL: B1 VL
B3: H1550L0918: affinity matured Dual-Fab variant, VH SEQ ID NO 92, VL SEQ ID NO 144 (antibody, V domains shown)
VH: B1 VH with V28K, W55Y, E113F, I115V
VL: B1 VL with R34N, N35V, T36V
B4: H1673L0943: affinity matured Dual-Fab variant, VH SEQ ID NO 100, VL SEQ ID NO 146 (antibody, V domains shown)
VH: B1 VH with M34F, A60D, G68E
VL: B1 VL with Q27E, R59L, S98H
B5: H1649L0943: affinity matured Dual-Fab variant, VH SEQ ID NO 97, VL SEQ ID NO 146 (antibody, V domains shown)
VH: B1 VH with M34F, W55Y, A60D, G68E, I101V, I115V
VL: B1 VL with Q27E, R59L, S98H
B6: H1652L0943: affinity matured Dual-Fab variant, VH SEQ ID NO 99, VL SEQ ID NO 146 (antibody, V domains shown)
VH: B1 VH with M34F, K54Y, W55Y, A60D, K67E, I101V, I115V
VL: B1 VL with Q27E, R59L, S98H
B7: H1610L0939: affinity matured Dual-Fab variant, VH SEQ ID NO 94, VL SEQ ID NO 145 (antibody, V domains shown)
VH: B1 VH
VL: B1 VL with R59V, S98H
B8: H2591L0581: affinity matured Dual-Fab variant, VH SEQ ID NO 101, VL SEQ ID NO 143 (antibody, V domains shown)
VH: B1 VH with V28K, M34F, K54Y, W55Y, A60G, A63H, I101V, S105A, I115V
VL: B1 VL
B9: H1651L0581: affinity matured Dual-Fab variant, VH SEQ ID NO 98, VL SEQ ID NO 143 (antibody, V domains shown)
VH: B1 VH with M34F, W55Y, A60D, K67E, I101V, I115V
VL: B1 VL
B10: H1649L0581: affinity matured Dual-Fab variant, VH SEQ ID NO 97, VL SEQ ID NO 143 (antibody, V domains shown)
VH: B1 VH with M34F, W55Y, A60D, G68E, I101V, I115V
VL: B1 VL
B11: H183L072: parental Dual-Fab (CD3/CD137), VH SEQ ID NO 90, VL SEQ ID NO 142 (antibody, V domains shown)
VH: B1 VH with V28T, V32A, W55G, I101V, L109V, E113F, I115V
VL: B1 VL with P25A, V29L, H99V
B12: H1673L0581: affinity matured Dual-Fab variant, VH SEQ ID NO 100, VL SEQ ID NO 143 (antibody, V domains shown)
VH: B1 VH with M34F, A60D, G68E
VL: B1 VL
B13: H1643L0581: affinity matured Dual-Fab variant, VH SEQ ID NO 95, VL SEQ ID NO 143 (antibody, V domains shown)
VH: B1 VH with V28K, M34F, K54Y, W55Y, I101V, I115V
VL: B1 VL
B14: H1571L0581: affinity matured Dual-Fab variant, VH SEQ ID NO 93, VL SEQ ID NO 143 (antibody, V domains shown)
VH: B1 VH with V28K, M34F, W55Y, A60T, I101V, E113F, I115V
VL: B1 VL
B15: H1647L0581: affinity matured Dual-Fab variant, VH SEQ ID NO 96, VL SEQ ID NO 143 (antibody, V domains shown)
VH: B1 VH with V28K, V32T, M34F, K54Y, W55Y, A57D, I101V, I115V
VL: B1 VL
B16: H0868L0581: affinity matured Dual-Fab variant, VH SEQ ID NO 91, VL SEQ ID NO 143 (antibody, V domains shown)
VH: B1 VH with V28K, W55Y, I101V, E113F, I115V
VL: B1 VL

What follows are molecules tested against T1, recombinant human CD3 (human CD3eg linker) (Homo sapiens, UniProt P07766+P09693) (assay: Biacore T200 SPR affinity of Dual-Fab antibodies to human CD3). Settings: 25 degrees C, pH 7.4.
T1 construct: made in house; host or cells: FreeStyle293F
T1 sequence (P07766+P09693 fused): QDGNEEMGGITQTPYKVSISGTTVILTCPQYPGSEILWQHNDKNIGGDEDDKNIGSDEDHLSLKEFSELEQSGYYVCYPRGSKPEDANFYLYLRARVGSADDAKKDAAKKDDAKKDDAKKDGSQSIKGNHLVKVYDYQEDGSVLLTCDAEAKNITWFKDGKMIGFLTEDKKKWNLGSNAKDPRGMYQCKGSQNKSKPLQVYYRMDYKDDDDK
Format: binding
Excerpt: The gamma and epsilon subunits of the human CD3 complex (human CD3eg linker) were linked by a 29-mer linker and a Flag-tag was fused to the C-terminal end of the gamma subunit (SEQ ID NO: 169). This construct was expressed transiently using FreeStyle293F cell line (Thermo Fisher). Conditioned media expressing human CD3eg linker was concentrated using a column packed with Q HP resins (GE healthcare) and then applied to FLAG-tag affinity chromatography. Fractions containing human CD3eg linker were collected and subsequently subjected to a Superdex 200 gel filtration column (GE healthcare) equilibrated with 1×D-PBS. Fractions containing human CD3eg linker were then pooled and stored at −80 degrees C.
(§1) Binding affinity of Dual-Fab antibodies (Dual-Ig) to human CD3 were assessed at 25 degrees C. using Biacore T200 instrument (GE Healthcare). Anti-human Fc (GE Healthcare) was immobilized onto all flow cells of a CM4 sensor chip using amine coupling kit (GE Healthcare). Antibodies were captured onto the anti-Fc sensor surfaces, then recombinant human CD3 or CD137 was injected over the flow cell. All antibodies and analytes were prepared in ACES pH 7.4 containing 20 mM ACES, 150 mM NaCl, 0.05% Tween 20, and 0.005% NaN3. Sensor surface was regenerated each cycle with 3M MgCl2. Binding affinity were determined by processing and fitting the data to 1:1 binding model using Biacore T200 Evaluation software, version 2.0 (GE Healthcare). CD137 binding affinity assay was conducted in same condition except assay temperature was set at 37 degrees C.

Row | Molecule | CD3 Koff [s⁻¹] | CD3 Kon [M⁻¹ s⁻¹] | Kd [µM]
1 | B1 | 0.00142 | 68000 | –
2 | B2 | 0.0584 | 98300 | –
3 | B3 | 0.00316 | 72000 | –
4 | B4 | 0.00116 | 55000 | –
5 | B5 | 0.0481 | 61000 | –
6 | B6 | 0.0636 | 62300 | 1.02
7 | B7 | 0.00253 | 50000 | –
8 | B8 | 0.0535 | 102000 | –
9 | B9 | 0.0371 | 71800 | –
10 | B10 | 0.0336 | 75000 | –
11 | B11 | 0.012 | 35400 | –
12 | B12 | 0.00106 | 79600 | –
13 | B13 | 0.0251 | 94600 | –

Each molecule was assayed against T2, recombinant human CD137 (Homo sapiens, UniProt Q07011) (assay: Biacore T200 SPR affinity of Dual-Fab antibodies to human CD137). Settings: 37 degrees C, pH 7.4.
T2 construct: made in house; host or cells: FreeStyle293F
T2 sequence (Q07011 with tags, fused parts or gaps): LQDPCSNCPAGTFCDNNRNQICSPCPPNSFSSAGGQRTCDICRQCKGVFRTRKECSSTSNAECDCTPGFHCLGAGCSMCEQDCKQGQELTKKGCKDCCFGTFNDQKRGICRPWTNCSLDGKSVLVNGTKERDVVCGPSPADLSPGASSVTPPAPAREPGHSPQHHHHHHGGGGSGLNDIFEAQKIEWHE
Format: binding
Excerpt: Human CD137 extracellular domain (ECD) (SEQ ID NO: 179) with hexahistidine (His-tag) and biotin acceptor peptide (BAP) on its C-terminus was expressed transiently using FreeStyle293F cell line (Thermo Fisher). Conditioned media expressing human CD137 ECD was applied to a HisTrap HP column (GE healthcare) and eluted with buffer containing imidazole (Nacalai). Fractions containing human CD137 ECD were collected and subsequently subjected to a Superdex 200 gel filtration column (GE healthcare) equilibrated with 1×D-PBS. Fractions containing human CD137 ECD were then pooled and stored at −80 degrees C.
as §1

Row | Molecule | CD137 Koff [s⁻¹] | CD137 Kon [M⁻¹ s⁻¹] | Kd [µM]
14 | B1 | 0.0011 | 10700 | –
15 | B2 | 0.00163 | 20900 | –
16 | B3 | 0.00579 | 10900 | –
17 | B14 | 0.00105 | 12100 | –
18 | B4 | 0.000722 | 12200 | –
19 | B5 | 0.000468 | 14300 | –
20 | B15 | 0.000647 | 9980 | –
21 | B6 | 0.00047 | 12900 | –
22 | B16 | 0.00136 | 12200 | –
23 | B7 | 0.000801 | 13000 | –
24 | B8 | 0.000742 | 20400 | –
25 | B9 | 0.000603 | 14000 | –
26 | B10 | 0.000553 | 12900 | –
27 | B11 | 0.0196 | 3470 | 5.66
28 | B12 | 0.00096 | 11900 | –
29 | B13 | 0.000606 | 12300 | –

Source: US20240425589A1, “CYTOTOXICITY-INDUCING THERAPEUTIC AGENT FOR USE IN TREATMENT OF CANCER” (CHUGAI SEIYAKU KABUSHIKI KAISHA, priority 2021, published 2024)
